Assay: soluble on expression in E. coli; label from the status in PepcDB or PDB records
In the case of “DEPKVLIAEVVVEGATPELEQLVYQVISTRPGSTTTRTQLQQDTNAIFATGFFADVNAVPRDTPLGVRITFVVRPYPVLRAVQVAGNQVLTQEKVNEIFAPQIGRTLNLRELQAGIEKINTFYRDNGYILGQVVGTPQVDPDGVVTLQVAEGVVEQVTYRFLNKEGEPTKQRTRDFVISREMDTQPGVVLNQKTVQADLRRLFELGLFEDVQVALEPGQNPRRVNLILNIKERNT”, the “soluble on expression in E. coli” value is reported as “soluble”.
For “DHFFELMGTTTEQAYELVDLHPAYRLFPEGSPALDVDSGVGNVATLFDALHPGAGKKVQRYLRNATDVYHLSLRHFLYTTFSNPRDFLRADILRRLPYLARLLSSSLDTWVRNRFPHPILRQILSYPAVFLSTQPTQAPALYSLMSHTDLVEGVHYPRGGFAAIMSAIEKIDREAGVEFYYEHEVTDITIESGRACGITAAGPHGTSTFNADVVVSAADLHHTETRLLPPHLRSYPENYWSKRNPGLGTVLIMLGVRGHLPELAHHNLLFSKDWDPDFAAVYSGPHPSRPLGASQSIYISKTSATDSDAAPEGHENLFILVPVPANDALGHGNTYHHTASPRVEEITRATIAQIATWTGISDLDERIVVTKTIGPADFSERYHAWSSGAIGPAHTLMQSAFFRGKNMASKVKGLYYAGGTTVPGVGVPMCLISAENVITRIKAE”, the “soluble on expression in E. coli” value was “not soluble”.
For “DIGCYTLGLLPPFDAQDSSTDMGSSIGIANGVYRATGNIPIAVIGDSTFFHSGISALANAVYNQTPMLVLVLDNRSTAMTGQQPSPSKEIDIGEVAKGLGVKYVRYVDPFDVNSSIRELSNALKWVKDNKQPAVVIAKRACALLVMDNVEESNLPKA”, the “soluble on expression in E. coli” value was “not soluble”.
For “DIQMSQSSSSFSVSLGDRVTITCKASEDIYSRLAWYQQKPGNAPRLLISGATSLETWVPSRFSGSDSGKDYTLSITSLQTEDVATYFCQQYWSPPPTFGGGTKLEIKRADAAPTVSIFPPSSEQLTSGGASVVCFLNNFYPKDINVKWKIDGSERQNGVLNSWTDQDSKDSTYSMSSTLTLTKDEYERHNSYTCEATHKTSTSPIVKSFNRNEC”, the “soluble on expression in E. coli” value was “soluble”.
For “DIVLTQSPSSLAVSLGQRATISCRASQSVSTSSFRYMHWYQQKPGQPPRLLIKYASNLESGVPARFSGSGSGTDFTLNIHPVEEEDTATYYCQHSWEIPYTFGGGTKLEIKRADAAPTVSIFPPSSEQLTSGGASVVCFLNNFYPKDINVKWKIDGSERQNGVLNSWTDQDSKDSTYSMSSTLTLTKDEYERHNSYTCEATHKTSTSPIVKSFNRNEC”, the “soluble on expression in E. coli” value was “soluble”.
For “DLFVVEKPPSLPVHTCGQYAIHTVLGQLRVNEGRTGLRVLHRLDRATSGVLLFAKNYETDLEFKTTLKQGEWSKEYICKVDGVFPDEEQVCEQPIGPLVISMGIQCVRPDGKDAKSRFRKLWSDGTQSVVQVHIETGRTHQIRVHSQF”, the “soluble on expression in E. coli” value was “not soluble”.
For “DPQSVETALNVAREGLVLLKNENNILPINPQKYKHIIVTGKNAHGYVHGGGSGAVVPFHYTNLFDGIQKEGKLNNVKVEYIDELDFMPSIMYTDDNLNEKGFHAEYFKNIHFEGAPVVKQTEKKINYSWAAGTELEGMPKDYFSVKWYSTMCVDETADYEFTLGGDDGYKLFINDQPIIDDWTPGGFRTTNVTKTLKAGEKYHVRVEYYQQGGGAGICFLWKRKNETQNKFADYLNKADLVIACFGHSSDTEGEASDRTFELPEVDKKMLASLSGCKKPVIGIVNAGGNIEMQKWEPSLKGLIWGFYGGQEAGTAIGEALFGKVNPSGKLPMTFEKKWEDSPAYNSYHDPDKDKHVAYTEGIFIGYRGYDKLKREVQYPFGYGLSYTTF”, the “soluble on expression in E. coli” value was “not soluble”.
In the case of “DTVIAMDAYTPHDVTTQAQQLIDATPTAPALAPMTWPTPRVAARVRTQRDQRGRAPKPPRARGIDTIQHGRDDIDLRAISQLACTSQTQAIARIIATLEKRVDDHTPMITLVNDVLAEIETHGWAALSGQRAGSHAERHPGRVAMPRPQEVMAALNRYRGLSLVGSLDA”, the “soluble on expression in E. coli” value is reported as “not soluble”.
For “DVKLVQSGPGLVAPSQSLSITCTVSGFSLTTYGVSWVRQPPGKGLEWLGVIWGDGNTTYHSALISRLSISKDNSRSQVFLKLNSLHTDDTATYYCAGNYYGMDYWGQGTSVTVSSAETTAPSVYKLEPVSSVTLGCLVKGYFPEPVTLTWNSGSLSSGVHTFPAVLQSDLYTLSSSVTVTSSTWPSQSITCNVAHPASSTKVDKKIEPRG”, the “soluble on expression in E. coli” value was “soluble”.
In the case of “EDYEKVPLPNSVFVNTTESCEVERLFKATSPRGEPQDGLYCIRNSSTKSGKVLVVWDETSNKVRNYRIFEKDSKFYLEGEVLFVSVGSMVEHYHTHVLPSHQSLLLRHPYGYT”, the “soluble on expression in E. coli” value is reported as “soluble”.
For “EEAKEGVPKVAYISLSPPFVGNYALDGSPRLRVYKADVALRVTGDEAAKTVKHHEPLIRNQLVALFTQQTVDSMSNVEAKEHLRQEALKQVQQVLEAEEGKPIVEDLLFNNLIVQ”, the “soluble on expression in E. coli” value was “not soluble”.
With “EFRKLGEVCEILDNRRIPIAKNKRNPGIYPYYGANGIQDYIDSYIFDGDFVLVGEDGSVINKDNTPVVNWASGKIWVNNHAHVLQTKNELKLKFLYFYLQTIDVSYCVAGTPPKINQENLKKIAIPIPPLEIQQEIVKILDQFSI” the “soluble on expression in E. coli” value was “not soluble”.
For “EGELRLGERVLVVGQRLGTIRFFGTTNFAPGYWYGIELEKPHGKNDGSVGGVQYFSCSPRYGIFAPPSRVQRVTDSLDTLSEI”, the “soluble on expression in E. coli” value was “soluble”.
For “EIVHLGLEDNDFDNDINPLETTGAYLSPKEFKEALLDKDTVVLDTRNDYEYDLGHFRGAIRPDIRNFRELPQWVRDNKEKFMDKRVVVYCTGGVRCEKFSGWMVREGYKDVGQLHGGIATYGKDPEVQGELWDGKMYVFDERIAVDVNHVNPTIVGKDWFDGTPCER”, the “soluble on expression in E. coli” value was “not soluble”.
In the case of “EKEKKNVFMRTFEAISRNFSEIFAKLSPGGSARLILENPEDPFSGGLEIEAKPAGKDVKRIEAMSGGEKALTALAFVFAIQKFKPAPFYLFDEIDAHLDDANVKRVADLIKESSKESQFIVITLRDVMMANADKIIGVSMRDGVSKVVSLSLEKAMKILEEIRKKQGWEHGN”, the “soluble on expression in E. coli” value is reported as “soluble”.
With “ELNNLRMTYERLRELSLNLGNRMVPPVGNFMPDSILKKMAAILPMNDSAFATLGTVEDKYRRRFKYFKATIADLSKKRSSE” the “soluble on expression in E. coli” value was “soluble”.
With “ELSGDDQGDEEEDDHAYEGVPNGGWHTSSLSLSLPSTIAAPHPMDGPPGGSTPVTPVIKAGWLDKNPPQGSYIYQKRWVRLDTDHLRYFDSNKDAYSKRFISVACISHVAAIGDQKFEVITNNRTFAFRAESDVERKEWMQALQQAMAEQRARARLSSAYLLGVPGSEQPDRAGSLELRGFKNKLYVAVVGDKVQLYKNLEEYHLGIGITFIDMSVGNVKEVDRRSFDLTTPYRIFSFSADSELEKEQWLEAMQGAIAEALSTSEVAERIWAAAPNRFCADCGAPQPDWASINLCVVICKRCAGEHRGLGAGVSKVRSLKMDRKVWTETLIELFLQLGNGAGNRFWAANVPPSEALQPSSSPSTRRCHLEAKYREGKYRRYHPLFGNQEELDKALCAAVTTTDLAETQALLGCGAGINCFSGDPEAPTPLALAEQAGQTLQMEFLRNNRTTEVPRLDSMKPLEKHYSVVLPTVSHSGFLYKTASAGKLLQDRRAREEFSRRWCVLGDGVLSYFENERAVTPNGEIRASEIVCLAVPPPDTHGFEHTFEVYTEGERLYLFGLESAEQAHEWVKCIAKAFVPPLAEDLLARDFERLGRLPYKAGLSLQRAQEGWFSLSGSELRAVFPEGPCEEPLQLRKLQELSIQGDSENQVLVLVERRRTLYIQGERRLDFMGWLGAIQKAAASMGDTLSEQQLGDSDIPVIVYRCVDYITQCGLTSEGIYRKCGQTSKTQRLLESLRQDARSVHLKEGEQHVDDVSSALKRFLRDLPDGLFTRAQRLTWLEASEIEDEEEKVSRYRELLVRLPPVNRATVKALISHLYCVQCFSDTNQMNVHNLAIVFGPTLFQTDGQDYKAGRVVEDLINHYVVVFSVDEEELRKQREEITAIVKMRVAGTASGTQHAGDFICTVYLEEKKAETEQHIKVPASMTAEELTLEILDRRNVGIREKDYWTCFEVNEREEAERPLHFAEKVLPILHGLGTDSHLVVKKHQAMEAMLLYLASRVGDTKHGMMKFREDRSLLGLGLPSGGFHDRYFILNSSCLRLYKEVRSQRPWSGAPETSHRPEKEWPIKSLKVYLGVKKKLRPPTCWGFTVVHETEKHEKQQWYLCCDTQMELREWFATFLFVQHDGLVWPSEPSRVSRAVPEVRLGSVSLIPLRGSENEMRRSVAAFTADPLSLLRNV” the “soluble on expression in E. coli” value was “soluble”.
With “EMFYFEPVNIKKYLGSIGSELSDEVITIEQFFNLNSEYITIIDARSPREFSEKTISNAVNIPLFLTEEYETIGKLYKHEGKEVAIAKAGIIIQDGIKRIVSESLKLDPNKNLVVFCARGGMRSQSIATILKLLGFKVKRLVGGFKSYNISKT” the “soluble on expression in E. coli” value was “not soluble”.
For “EMLYRSVDNRDIPQAMPKTIQALAHWDYQGLPDSEVVEAFSVELLALYETKALPKIANRMNIEVSGMRSLMMKTGRKLSRLEVLPTSIKELSRLDKRWADAKHWVAFKNLSGAITVNHYLAALDMQVNEMGEIEAQPEKRQIYVDLFFKT”, the “soluble on expression in E. coli” value was “not soluble”.
With “ENHEKEWRFNSRITLVRSPIMLGQQTSHGWRDLIFDVSGGGATPAKHVMQYTGVSYPLNPSMAPTATPEQISGVRLFSDGISPVREGVRL” the “soluble on expression in E. coli” value was “not soluble”.
For “ENSVFFGKKKKVSLHLLVDPDMKDEIIKYAQEKDFDNVSQAGREILKKGLEQIA”, the “soluble on expression in E. coli” value was “soluble”.
For “ERTRAEQKLAETNVFLNSVVDGVAEPMVVVGLDRRVIMTNRAARDFFQISDVGSDEACHRLIHHRDTPCVREEGMQCPLLDVRTAKRPVIATQEHRDRSGDKRVVEVMTSPLLGSDGVAIGIIEAFRDIT”, the “soluble on expression in E. coli” value was “not soluble”.
In the case of “ESIQRPTPINQVFPDPGLANAVKQNLGKQSVTDLVSQKELSGVQNFNGDNSNIQSLAGMQFFTNLKELHLSHNQISDLSPLKDLTKLEELSVNRNRLKNLNGIPSACLSRLFLDNNELRDTDSLIHLKNLEILSIRNNKLKSIVMLGFLSKLEVLDLHGNEITNTGGLTRLKKVNWIDLTGQKCVNEPVKYQPELYITNTVKDPDGRWISPYYISNGGSYVDGCVLWELPVYTDEVSYKFSEYINVGETEAIFDGTVTQPIKN”, the “soluble on expression in E. coli” value is reported as “soluble”.
In the case of “ESLCPQHHEALSLFCYEDQEAVCLICAISHTHRAHTVVPL”, the “soluble on expression in E. coli” value is reported as “soluble”.
In the case of “ETIELYKSSVPSGKEAGKNALAITNQQLISALENAAKDNKTSQPQARSLTASDQVQITQSSDKVIGYITTSNLDIDNNNTFDVGKLNGDKSTSKIIVNATLKTLNKINTLQSEEGIILPHPQKYKSTDPQAVATVQGPSIIGVHANAKENAETQKFINW”, the “soluble on expression in E. coli” value is reported as “not soluble”.
For “EVKLLESGGGLAQPGGSLKLSCAASGFDFRRYWMTWVRQAPGKGLEWIGEINPDSRTINYMPSLKDKFIISRDNAKNSLYLQLSRLRSEDSALYYCVRLDFDVYNHYYVLDYWGQGTSVTVSSASTKGPSVFPLAPSSKSTSGGTAALGCLVKDYFPEPVTVSWNSGALTSGVHTFPAVLQSSGLYSLSSVVTVPSSSLGTQTYICNVNHKPSNTKVDKKVEPKSCD”, the “soluble on expression in E. coli” value was “soluble”.
With “EVKLVESGGGLVLPGGSLRLSCATSGFTFTDYYMTWVRQPPGKALEWLGFIGNKANDYTTEYSASVKGRFTISRDDSQSILYLQMSTLRAEDRATYYCATVYGNYPYFDVWGVGTTVAVSSATTTAPSVYPLVPGCSDTSGSSVTLGCLVKGYFPEPVTVKWNYGALSSGVRTVSSVLQSGFYSLSSLVTVPSSTWPSQTVICNVAHPASKVDLIKEISGP” the “soluble on expression in E. coli” value was “soluble”.
With “EVQLQQSGPELVKPGSSVKISCKASRNTFTDYNLDWVKQSHGKTLEWIGNVYPNNGVTGYNQKFRGKATLTVDKSSSTAYMELHSLTSEDSAVYYCALYYYDVSYWGQGTLVTVSSAKTTPPSVYPLAPGSAAQTNSVTLGCLVKGYFPEPVTVTWNSGSLSSGVHTFPAVLQSDLYTLSSSVTVPSSTWPSQSVTCNVAHPASSTAVDKKIAPA” the “soluble on expression in E. coli” value was “soluble”.

— the DeepSol protein solubility set
